Source: article PMC5108336, “Tubular epithelial cells in renal clear cell carcinoma express high RIPK1/3 and show increased susceptibility to TNF receptor 1-induced necroptosis” (Cell Death & Disease, 2016)

T1: Mixed lineage kinase domain-like phosphorylated at Serine 358 (human (endogenous in RCC and kidney …, UniProt Q8NB16 1-471, phosphoserine at 358))
T1 construct: also called pMLKL^Ser358; phospho-MLKL^Ser358; source: endogenous, organ cultures of human RCC grade 1 and adjacent non-tumor kidney (tissue sections)
T1 sequence (looked up): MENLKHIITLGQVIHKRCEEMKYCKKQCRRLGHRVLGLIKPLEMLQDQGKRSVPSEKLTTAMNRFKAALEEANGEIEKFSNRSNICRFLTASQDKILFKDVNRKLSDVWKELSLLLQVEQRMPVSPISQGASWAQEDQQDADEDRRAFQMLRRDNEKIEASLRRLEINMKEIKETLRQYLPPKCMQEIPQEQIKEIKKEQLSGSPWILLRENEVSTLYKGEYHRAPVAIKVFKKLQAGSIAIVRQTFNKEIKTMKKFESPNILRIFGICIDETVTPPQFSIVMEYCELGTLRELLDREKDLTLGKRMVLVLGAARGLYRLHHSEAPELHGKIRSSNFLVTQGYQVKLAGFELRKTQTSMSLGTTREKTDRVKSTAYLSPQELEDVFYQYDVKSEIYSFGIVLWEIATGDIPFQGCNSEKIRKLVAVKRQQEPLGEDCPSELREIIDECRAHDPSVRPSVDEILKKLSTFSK

B1: receptor-interacting protein kinase 1 (natural protein, UniProt Q13546-1 1-671, looked up)
chain: MQPDMSLNVIKMKSSDFLESAELDSGGFGKVSLCFHRTQGLMIMKTVYKGPNCIEHNEALLEEAKMMNRLRHSRVVKLLGVIIEEGKYSLVMEYMEKGNLMHVLKAEMSTPLSVKGRIILEIIEGMCYLHGKGVIHKDLKPENILVDNDFHIKIADLGLASFKMWSKLNNEEHNELREVDGTAKKNGGTLYYMAPEHLNDVNAKPTEKSDVYSFAVVLWAIFANKEPYENAICEQQLIMCIKSGNRPDVDDITEYCPREIISLMKLCWEANPEARPTFPGIEEKFRPFYLSQLEESVEEDVKSLKKEYSNENAVVKRMQSLQLDCVAVPSSRSNSATEQPGSLHSSQGLGMGPVEESWFAPSLEHPQEENEPSLQSKLQDEANYHLYGSRMDRQTKQQPRQNVAYNREEERRRRVSHDPFAQQRPYENFQNTEGKGTAYSSAASHGNAVHQPSGLTSQPQVLYQNNGLYSSHGFGTRPLDPGTAGPRVWYRPIPSHMPSLHNIPVPETNYLGNTPTMPFSSLPPTDESIKYTIYNSTGIQIGAYNYMEIGGTSSSLLDSTNTNFKEEPAAKYQAIFDNTTSLTDKHLDPIRENLGKHWKNCARKLGFTQSQIDEIDHDYERDGLKEKVYQMLQKWVMREGIKGATVGKLAQALHQCSRIDLLSSLIYVSQN
notes: Detected in situ by an anti-RIPK1 antibody; also called RIPK1; source: endogenous, organ cultures of human RCC grade 1 and adjacent non-tumor kidney (tissue sections)
B2: receptor-interacting protein kinase 3 (natural protein, UniProt Q9Y572-1 1-518, looked up)
chain: MSCVKLWPSGAPAPLVSIEELENQELVGKGGFGTVFRAQHRKWGYDVAVKIVNSKAISREVKAMASLDNEFVLRLEGVIEKVNWDQDPKPALVTKFMENGSLSGLLQSQCPRPWPLLCRLLKEVVLGMFYLHDQNPVLLHRDLKPSNVLLDPELHVKLADFGLSTFQGGSQSGTGSGEPGGTLGYLAPELFVNVNRKASTASDVYSFGILMWAVLAGREVELPTEPSLVYEAVCNRQNRPSLAELPQAGPETPGLEGLKELMQLCWSSEPKDRPSFQECLPKTDEVFQMVENNMNAAVSTVKDFLSQLRSSNRRFSIPESGQGGTEMDGFRRTIENQHSRNDVMVSEWLNKLNLEEPPSSVPKKCPSLTKRSRAQEEQVPQAWTAGTSSDSMAQPPQTPETSTFRNQMPSPTSTGTPSPGPRGNQGAERQGMNWSCRTPEPNPVTGRPLVNIYNCSGVQVGDNNYLTMQQTTALPTWGLAPSGKGRGLQHPPPVGSQEGPKDPEAWSRPQGWYNHSGK
notes: Detected in situ by an anti-RIPK3 antibody; also called RIPK3; source: endogenous, organ cultures of human RCC grade 1 and adjacent non-tumor kidney (tissue sections)

Legend:
[1] = biological target: B2; test: proximity ligation; in situ PLA (Duolink In Situ Detection Reagents Red) on sections of organ cultures of RCC grade 1 and adjacent non-tumor kidney (NK), untreated (UT) or treated with wtTNF (10 ng/ml), R1TNF or R2TNF (1 ug/ml) for 3 h at 37 °C; signal when two proteins are closer than 40 nm; red spots counted in mTECs in 10 random fields at x40; details: partners not purified
[2] = biological target: T1, Mixed lineage kinase domain-like …; test: as above; details: partners not purified

Binder	fold increase of PLA signal with R1TNF over untreated (non-tumor kidney organ culture) [1]	fold increase of PLA signal with R1TNF over untreated (non-tumor kidney organ culture) [2]
B1	~3 fold	
B2		~2.5 fold
